Test results reported in patent US20110091971A1, “Differentiation of Pluripotent Stem Cells” (priority 2008, published 2011).
Substitutions are numbered along the chain they refer to. Several values for one entry are separate records, joined by “and”; a condition that tells them apart may be missing. Identical values can stand only once.

Tested on: H1 or H9 human embryonic stem cells
Assay: Activin A bioassay: differentiation of human embryonic stem cells to definitive endoderm, cell number and SOX17 intensity by high content analysis (96-well, four days);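 as to Cell Number average: Raw total cell count per well from high content imaging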;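 as to Sox 17 Intensity average: total fluorescence of the cell multiplied by cell area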
Assay type: cell-based
Conditions: for Sox 17 Intensity % of control: control = R&D Sys Activin A 100 ng/ml on same plate
Excerpt: Activin A is an important mediator of differentiation in a broad range of cell types. […] A bioassay that measures this differentiation in human embryonic stem cells was adapted in miniaturized format to 96-well plates for screening purposes. Validation was completed using treatment with commercial sources of activin A and Wnt3a recombinant proteins and measuring protein expression of the transcription factor SOX17, which is considered a representative marker of definitive endoderm.
Live Cell Assay: Briefly, clusters of H1 or H9 human embryonic stem cells were grown on growth factor-reduced MATRIGEL™ (Invitrogen; Cat #356231)-coated tissue culture plastic. Cells were passaged using collagenase (Invitrogen; Cat # Cat #17104-019) treatment and gentle scraping, washed to remove residual enzyme, and plated in a ratio of 1:1 (surface area) on growth factor-reduced MATRIGEL™-coated 96-well plates (black, 96-well; Packard ViewPlates; Cat #6005182). Cells were allowed to attach as clusters and then recover log phase growth over a 1 to 3 day period, feeding daily with MEF conditioned medium supplemented with 8 ng/ml bFGF (R&D Systems; Cat #233-FB).
The assay was initiated by washing the wells of each plate twice in PBS and followed by adding an aliquot (100 μl) of test sample in DMEM:F12 basal medium (Invitrogen; Cat #11330-032) to each well. Test conditions were performed in triplicate, feeding […] by aspirating and replacing the medium from each well with test samples over a total four day assay period. On the first and second day of assay, test samples added to the assay wells were diluted in DMEM:F12 with 0.5% FCS (HyClone; Cat #SH30070.03) and 20 ng/ml Wnt3a (R&D Systems; Cat #1324-WN). On the third and fourth day of assay, test samples added to the assay wells were diluted in DMEM:F12 with 2% FCS, without any Wnt3a. Positive control samples consisted of recombinant human activin A (Peprotech; Cat #120-14) added at a concentration of 100 ng/ml throughout assay plus Wnt3a (20 ng/ml) on days 1 and 2. Negative control samples omitted treatment with both activin A and Wnt3a.
High Content Analysis: At the conclusion of four days of culture, assay plates were washed twice with PBS, fixed with 4% paraformaldehyde at room temperature for 20 minutes, then washed three times with PBS and permeabilized with 0.5% Triton X-100 for 20 minutes at room temperature. Cells were washed again three times with PBS and blocked with 4% chicken serum (Invitrogen; Cat #16110082) in PBS for 30 minutes at room temperature. Primary antibody (goat anti-human SOX17; R&D Systems; cat #AF1924) was diluted 1:100 in 4% chicken serum and added to each well for one hour at room temperature. Alexa Fluor 488 conjugated secondary antibody (chicken anti-goat IgG; Molecular Probes; Cat #) was diluted 1:200 in PBS and added to each sample well after washing three times with PBS. To counterstain nuclei, 4 μg/ml Hoechst 33342 (Invitrogen; Cat #H3570) was added for ten minutes at room temperature. Plates were washed once with PBS and left in 100 μl/well PBS for imaging.
Imaging was performed using an IN Cell Analyzer 1000 (GE Healthcare) utilizing the 51008bs dichroic for cells stained with Hoechst 33342 and Alexa Fluor 488. Exposure times were optimized from positive control wells and from untreated negative control wells stained with secondary antibody alone. Images from 15 fields per well were acquired to compensate for any cell loss during the bioassay and subsequent staining procedures. Measurements for total cell number and total SOX17 intensity were obtained from each well using IN Cell Developer Toolbox 1.7 (GE Healthcare) software. Segmentation for the nuclei was determined based on grayscale levels (baseline range 100-300) and nuclear size. Averages and standard deviations were calculated for each replicate data set. […]

[1] = supernatant concentration 1x, assay dilution 1:20
[2] = supernatant concentration 10x, assay dilution 1:20
[3] = supernatant concentration 10x, assay dilution 1:40
[4] = supernatant concentration 10x, assay dilution 1:20, assay plates #007, #009, #010
[5] = supernatant concentration 50x, assay dilution 1:20, assay plates #008, #009

B1: ACTN44: activin A variant peptide, SEQ ID 45 (protein)
chain: GLECDGKVNLCCKKQNFVSFKDIGWNDWIIAPSGYHANECSGKCPSHIAGTSGSSLSFHSTVINHYRMRGHSPFSDMGACCIPTKLRPMSMLYYDDGQNIIKKDIQNMIVEECGCS
In the case of B1, the “Cell Number average” value [1] is reported as 3657, the “Sox 17 Intensity average” value [1] is reported as 5.01E+04 and the “Sox 17 Intensity % of control” value [1] is reported as 0.5%. The “Cell Number average” value [2] was 1508, the “Sox 17 Intensity average” value [2] was 3.24E+05 and the “Sox 17 Intensity % of control” value [2] was 3.5%. The “Cell Number average” value [3] was 2272, the “Sox 17 Intensity average” value [3] was 1.58E+05 and the “Sox 17 Intensity % of control” value [3] was 1.7%.

B2: ACTN47: activin A variant peptide, SEQ ID 48 (protein)
chain: B1 chain with L10Y, A79S
With B2 the “Cell Number average” value [1] was 2624, the “Sox 17 Intensity average” value [1] was 7.48E+05 and the “Sox 17 Intensity % of control” value [1] was 8.0%. The “Cell Number average” value [2] was 1399, the “Sox 17 Intensity average” value [2] was 4.27E+06 and the “Sox 17 Intensity % of control” value [2] was 45.7%. For the same molecule, the “Cell Number average” value [3] was 1610, the “Sox 17 Intensity average” value [3] was 1.09E+06 and the “Sox 17 Intensity % of control” value [3] was 11.7%.

B3: ACTN45: activin A variant peptide, SEQ ID 46 (protein)
chain: B1 chain with L10T, S75A, D76N
With B3 the “Cell Number average” value [1] was 4591, the “Sox 17 Intensity average” value [1] was 1.48E+05 and the “Sox 17 Intensity % of control” value [1] was 1.6%. For the same molecule, the “Cell Number average” value [2] was 2058, the “Sox 17 Intensity average” value [2] was 1.13E+05 and the “Sox 17 Intensity % of control” value [2] was 1.2%. The “Cell Number average” value [3] was 4482, the “Sox 17 Intensity average” value [3] was 2.30E+04 and the “Sox 17 Intensity % of control” value [3] was 0.2%.

B4: ACTN52: activin A variant peptide, SEQ ID 53 (protein)
chain: GLECDGKVNICCKKQLFGKTKDIGWNDWIIAPSGYHGGSCTGECPSHIAGTSGSSLSFHSTVINHYRMRGHSPNANLKSCCSPTKLRPMSMLYYDDGQNIIKKDIQGMKVEECGCT
In the case of B4, the “Cell Number average” value [1] is reported as 3092, the “Sox 17 Intensity average” value [1] is reported as 1.17E+05 and the “Sox 17 Intensity % of control” value [1] is reported as 1.3%. For the same molecule, the “Cell Number average” value [2] was 4869, the “Sox 17 Intensity average” value [2] was 2.64E+04 and the “Sox 17 Intensity % of control” value [2] was 0.3%. The “Cell Number average” value [3] was 3900, the “Sox 17 Intensity average” value [3] was 9.50E+04 and the “Sox 17 Intensity % of control” value [3] was 1.0%.

B5: ACTN71: activin A variant peptide, SEQ ID 72 (protein)
chain: B4 chain with L16S, K19Q, T20A, S39G, N74F, G107N
In the case of B5, the “Cell Number average” value [1] is reported as 1621, the “Sox 17 Intensity average” value [1] is reported as 2.45E+05 and the “Sox 17 Intensity % of control” value [1] is reported as 0.8%. For the same molecule, the “Cell Number average” value [2] was 3909, the “Sox 17 Intensity average” value [2] was 3.61E+05 and the “Sox 17 Intensity % of control” value [2] was 1.2%. The “Cell Number average” value [3] was 1970, the “Sox 17 Intensity average” value [3] was 1.01E+06 and the “Sox 17 Intensity % of control” value [3] was 3.4%.

B6: ACTN55: activin A variant peptide, SEQ ID 56 (protein)
chain: B4 chain with L16S, K19Q, S39G, N74W, K109V
In the case of B6, the “Cell Number average” value [1] is reported as 2425, the “Sox 17 Intensity average” value [1] is reported as 3.41E+05 and the “Sox 17 Intensity % of control” value [1] is reported as 1.2%. The “Cell Number average” value [2] was 3611, the “Sox 17 Intensity average” value [2] was 2.67E+05 and the “Sox 17 Intensity % of control” value [2] was 0.9%. For the same molecule, the “Cell Number average” value [3] was 2761, the “Sox 17 Intensity average” value [3] was 5.44E+05 and the “Sox 17 Intensity % of control” value [3] was 1.8%.

B7: ACTN59: activin A variant peptide, SEQ ID 60 (protein)
chain: B4 chain with K19Q, S39G, S82A, T116V
For B7, the “Cell Number average” value [1] was 2613, the “Sox 17 Intensity average” value [1] was 1.09E+06 and the “Sox 17 Intensity % of control” value [1] was 3.7%. For the same molecule, the “Cell Number average” value [2] was 3304, the “Sox 17 Intensity average” value [2] was 2.11E+06 and the “Sox 17 Intensity % of control” value [2] was 7.1%. The “Cell Number average” value [3] was 1776, the “Sox 17 Intensity average” value [3] was 1.81E+06 and the “Sox 17 Intensity % of control” value [3] was 6.1%.

B8: ACTN64: activin A variant peptide, SEQ ID 65 (protein)
chain: B4 chain with L16S, K19Q, S39G, T41S, N74W, K109V
In the case of B8, the “Cell Number average” value [1] is reported as 2415, the “Sox 17 Intensity average” value [1] is reported as 1.30E+06 and the “Sox 17 Intensity % of control” value [1] is reported as 4.4%. The “Cell Number average” value [2] was 2215, the “Sox 17 Intensity average” value [2] was 1.55E+06 and the “Sox 17 Intensity % of control” value [2] was 5.2%. For the same molecule, the “Cell Number average” value [3] was 2688, the “Sox 17 Intensity average” value [3] was 1.12E+06 and the “Sox 17 Intensity % of control” value [3] was 3.8%.

B9: ACTN63: activin A variant peptide, SEQ ID 64 (protein)
chain: B4 chain with L16S, G18S, K19Q, T20A, S39G, N74F, K109V
B9 was tested, and the “Cell Number average” value [1] was 3380, the “Sox 17 Intensity average” value [1] was 1.07E+06 and the “Sox 17 Intensity % of control” value [1] was 3.6%. The “Cell Number average” value [2] was 1935, the “Sox 17 Intensity average” value [2] was 2.28E+06 and the “Sox 17 Intensity % of control” value [2] was 7.7%. For the same molecule, the “Cell Number average” value [3] was 2718, the “Sox 17 Intensity average” value [3] was 2.01E+06 and the “Sox 17 Intensity % of control” value [3] was 6.8%.

B10: ACTN53: activin A variant peptide, SEQ ID 54 (protein)
chain: B4 chain with L16E, K19Q, T20A, S39G, T41S, N74W
For B10, the “Cell Number average” value [1] was 1610, the “Sox 17 Intensity average” value [1] was 1.14E+06 and the “Sox 17 Intensity % of control” value [1] was 3.8%. For the same molecule, the “Cell Number average” value [2] was 3229, the “Sox 17 Intensity average” value [2] was 1.51E+06 and the “Sox 17 Intensity % of control” value [2] was 5.1%. The “Cell Number average” value [3] was 3476, the “Sox 17 Intensity average” value [3] was 9.41E+05 and the “Sox 17 Intensity % of control” value [3] was 3.2%.

B11: ACTN62: activin A variant peptide, SEQ ID 63 (protein)
chain: B4 chain with L16S, K19Q, T20A, S39G, N74W, G107N, K109V
For B11, the “Cell Number average” value [1] was 1661, the “Sox 17 Intensity average” value [1] was 1.05E+06 and the “Sox 17 Intensity % of control” value [1] was 3.6%. The “Cell Number average” value [2] was 5728, the “Sox 17 Intensity average” value [2] was 2.45E+05 and the “Sox 17 Intensity % of control” value [2] was 0.8%. The “Cell Number average” value [3] was 3782, the “Sox 17 Intensity average” value [3] was 1.33E+06 and the “Sox 17 Intensity % of control” value [3] was 4.5%.

B12: ACTN57: activin A variant peptide, SEQ ID 58 (protein)
chain: B4 chain with L16S, K19Q, T20A, S39G, T41S, N74W, G107N
B12 was tested, and the “Cell Number average” value [1] was 4485, the “Sox 17 Intensity average” value [1] was 9.99E+05 and the “Sox 17 Intensity % of control” value [1] was 3.4%. The “Cell Number average” value [2] was 6471, the “Sox 17 Intensity average” value [2] was 1.74E+06 and the “Cell Number average” value [4] was 9442. The “Sox 17 Intensity average” value [4] was 1.70E+06, the “Sox 17 Intensity % of control” value [2] was 5.9% and 6.8% and the “Cell Number average” value [3] was 4594. The “Sox 17 Intensity average” value [3] was 1.30E+06, the “Sox 17 Intensity % of control” value [3] was 4.4% and the “Cell Number average” value [5] was 12697. The “Sox 17 Intensity average” value [5] was 7.82E+06 and the “Sox 17 Intensity % of control” value (supernatant concentration 50x, assay dilution 1:20) was 31.4%.
